Source: patent US9751932B2, “Anti-big-endothelin-1 (big-ET-1) antibodies and uses thereof” (Regeneron Pharmaceuticals, Inc., priority 2012, dated 2017)

T1: human big-ET-1 (SEQ ID NO:434) (Homo sapiens, UniProt P05305)
T1 sequence (P05305 53-90 limits assumed): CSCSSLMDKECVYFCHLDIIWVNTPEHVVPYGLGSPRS

T2: mouse big-ET-1 (SEQ ID NO:437) (Mus musculus, UniProt P22387)
T2 sequence (P22387 53-91 limits assumed): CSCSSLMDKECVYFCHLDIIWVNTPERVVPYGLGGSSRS


Tests used:
[1] = target: T1, human big-ET-1 (SEQ ID NO:434); test: Surface plasmon resonance (Biacore) binding, mAb capture format, 37° C.; conditions: for ka / kd: analyte human big-ET-1, mAb capture
Method: (§1) Measurements were conducted on a T200 Biacore instrument (Biacore Life Sciences division of GE Healthcare, Piscataway, N.J.). […] Different concentrations of small-ET-1 (SEQ ID NO:435), human big-ET-1 (SEQ ID NO:434) or mouse big-ET-1 (SEQ ID NO:437) were injected over the anti-big-ET-1 captured surfaces at a flow rate of 100 μl/min. Peptide binding was monitored for 3 min while dissociation of mAb-bound peptide was monitored for 4 min in HBST running buffer (0.01 M HEPES pH 7.4, 0.15 M NaCl, 3 mM EDTA, 0.005% v/v Surfactant P20). Kinetic association (ka) and dissociation (kd) rate constants were determined by processing and fitting the data to a 1:1 binding model using Scrubber 2.0 curve fitting software.

[2] = target: T2, mouse big-ET-1 (SEQ ID NO:437); test: as above; conditions: for Kd / ka / kd: analyte mouse big-ET-1, mAb capture; for Kd: KD=kd/ka
Method: as §1

Row | Molecule | binding to human big-ET-1 (in words) [1] | ka [1] [M/s] | kd [1] [s⁻¹] | binding to mouse big-ET-1 (in words) [2] | Kd [2] [nM] | ka [2] [M/s] | kd [2] [s⁻¹]
1 | H1M6492N: anti-big-ET-1 hybridoma antibody, H1M Fc; HCVR/LCVR SEQ ID NO: 34/42 (antibody, V domains shown, mouse Fc) VH: EVQLVESGGGLVKPGGSLRVSCVASGFTFSNAWMTWVRQTPGKGLECVGRIKSRTDGGTVDYVAPVKGRFTISRDDSKNTLYLQMNSLKAEDTAVYYCRADLDYWGQGTLVTVSS VL: DVVMTQSPLSLPVSLGQPASISCRSSQSLVHSDGITYLNWFQQRPGQSPRRLIYKISNRDSGVPDRFSGSGSGTDFTLKFSRVEAEDVGVYFCMQGTHWPYTFGQGTKLEIK | high affinity binding | 248000 | 0.0016 | did not show any binding | > 1000 | – | –
2 | H1M6494N: anti-big-ET-1 hybridoma antibody, H1M Fc; HCVR/LCVR SEQ ID NO: 50/58 (antibody, V domains shown, mouse Fc) VH: EVQLVESGGGLVKPGGSLRVSCVASGFTFSNAWMTWVRQTPGKGLECVGRIKSRTDGGTVDYVAPVKGRFTISRDDSKNTLYLQMNSLKAEDTAVYYCRADLDYWGQGTLVTVSS VL: DVVMTQSPLSLPVSLGQPASISCRSSQSLVHSDGITYLNWFQQRPGQSPRRLIYKISNRDSGVPDRFSGSGSGTDFTLKFSRVEAEDVGVYFCMQGTHWPYTFGQGTKLEIK | high affinity binding | 239000 | 0.00169 | did not show any binding | > 1000 | – | –
3 | H4H6317P: anti-big-ET-1 antibody, human IgG4 Fc; HCVR/LCVR SEQ ID NO: 130/138 (antibody, V domains shown, human IgG4 Fc) VH: QVQLVESGGGVVQPGRSLRLSCAASGFTFSSYGMHWVRQAPGKGLEWVAVLWYDGRNKYYADSVKGRFTISRDNSKNTLYLQMNSLRAEDTAVYYCARSYDAFDIWGQGTMVTVSS VL: DIQMTQSPSTLSASVGDRVTITCRASQSISSWLAWFQQGPGRAPKLLIYKASTLQSGVPSRFSGSGSGTEFTLTISSLQPDDFATYYCQQYRSYSPTFGQGTKVEIK | high affinity binding | 36700 | 0.000199 | did not show any binding | > 1000 | – | –
4 | H4H6323P: anti-big-ET-1 antibody, human IgG4 Fc; HCVR/LCVR SEQ ID NO: 146/154 (antibody, V domains shown, human IgG4 Fc) VH: QITLKESGPPLVKPTQTLTLTCTFSGFSLNTNGMGVGWIRQPPGKALEWLTLIYWNDDKRYSPSLKTRLTITKDTSKNQVVLTMTNMDPVDTATYYCARFGSGTYWGQGTLVTVSS VL: DIVMTQSPLSLPVTPGEPASISCRSSQSLLHSYGYNFLDWFLQKPGQSPQLLIYLGSHRASGVPDRFSGSGSGTDFTLKISRVEAEDVGVYYCMQALQTPLTFGGGTKVEIK | – | 565000 | 0.00569 | – | – | 580000 | 0.0192
5 | H4H6329P: anti-big-ET-1 antibody, human IgG4 Fc; HCVR/LCVR SEQ ID NO: 194/202 (antibody, V domains shown, human IgG4 Fc) VH: QVQLVESGGGVVQPGRSLRLSCAASGFTFGSYGMHWVRQAPGKGLEWVAVIWYDGSDEYYTDSVKGRFTVSRDNSKYTLYLQMNSLRADDTAVYYCARDGYRTRGNYFDYWGQGTLVTVSS VL: DVVMTQSPLSLPVALGQPASISCRSSQSLVYSDGNTYLNWFQQRPGQSPRRLIYKVSNRDSGVPDRFGGSGSGTDFTLKISRVEAEDVGLYYCMQGTHWPPTFGGGTKVEIK | – | 595000 | 0.000176 | – | – | 11600 | 0.000223
